B1: c32045 (antibody, V domains shown)
VH: AVQLLESGGGLVKPGGSLRLSCAASGFTFGSYAMHWVRQAPGKGLEWVSSINISSTTYMYYSDSLKGRFTISRDNAKKTLYLQMASLRPEDTAVYYCVREATYCGSQCYSRYFDFWGSGTLVAVSS
VL: DIQMTQSPPSVSAGVGDRVTITCRASQTISGFLSWYQQKPGKAPKLLIYAASTLHSGVPSRFSGSGSGTDFTLTISSLQPEDFATYYCQQSYSAPRTFGQGTKLEIK
B2: c3214 (antibody, V domains shown)
VH: QVQLVQSGAEVKKPGSSVKVSCKASGDNFSGYGINWVRQAPGQGLEWMGRIFPMLPVPSYAQKFQGRVTITADESTNSAYLELTSLRSEDSAVYYCARGTGEGDYFDYWGQGTQVTVSS
VL: DIQMTQSPSSVSASVGDRVTITCRASQGISRYVAWYQQKPGKAPKLLIYAASSLETGVPSRFSGSGSGTDFTLTISSLEPEDFATYYCQQANSFPLTFGGGTKVEIK
B3: c8595 (antibody, V domains shown)
VH: QVKLQESGPGLVKPSETLSLTCVVSGVSISQSDYFWNWLRQTPGKGLEWLGFISYSGDTFFNPSLESRLGMSVDTSSNHISLSLKSMTAADAAVYYCARTFCDDVKCYPLFDSWGHGKLVAVSS
VL: DIVMTQSPDSLPLSPGERASINCQSSQSVLYSSDNRNYLAWYQLKPGQPPKLLIYWASVRASGVPDRFSGSGSGTDFTLSISSLQAEDVAVYYCQQYYITPYSFGQGTKVEIR
B4: c8582 (antibody, V domains shown)
VH: QVHLVQSGAEVKKPGSSVKVSCKASGGSFSDYGISWVRQAPGQGLEWMGGIIPGFETTKFAQGLQGRLTMTADESSSTAYMVLNRLRPQDTGVYYCATTGQQNDYYSSGTSYKLNFYFGMDVWGQGTTVTVSS
VL: QSVLTQPPSSSGTPGQRVTITCSGGSSNIETNSVHWYQQLPGAAPKTVISATHQRPSGVPDRFSASKSGASASLAISGLQSEDEADYYCAVWDDSLNTWVFGGGTKLTVL
B5: c8553 (antibody, V domains shown)
VH: QVQLVQSGAEMKMPGSSVKVSCKTSGGTFGSDSLNWVRQAPGQGLEWMGAIIPVFRTATYAQKFQGRVTITADTSTSTVSMDFYNLKSEDTAVYFCARFLLTSGDDIRDFFDLWGPGTMVTVSS
VL: PSELTQDPAVSVPLGQTVKISCRGDNLGTYYTSWYQQKAGQAPLAVIYGDNKRPSEIPERFSGSSSGNTASLTITGARAEDEADYYCNSRDKSGSHVVFGGGTKLTVL
B6: c8517 (antibody, V domains shown)
VH: QVTLKESGPTLLRPADTLTLTCNFSGFSLTTDGVALGWMRQSPGKAPEWLAFLFYDDDKQYNPHLKSRLIISKASSTNQLVLAMTNMGPGDAGTYFCARLNVLVHDVPPRNYGLDVWGRGITITVSS
VL: DIVLTQSPVSLSVTPGQSASMSCKSSETLLHEDGKSYLYWYLQKPGQSPQLLIYEASKRFSGVSDRFTASGTGTHFTLQIDRVEVDDVGVYYCMENLKALTFGGGTRMEIK
B7: c1897 (antibody, V domains shown)
VH: EVQLVQSGAEVKKPGSSVKVSCKGSGGTLNMFALSWVRQAPGQGLEWVGGIIPSFGTTNYAQKFEGRVTITADDSADESTATVHMELSSLRRDDTAVYYCARESSGRADDSLIGYFDRQGEYYFDFWGQGTLVTVSS
VL: DIQMTQSPSTLSASIGDRVTITCRASQSISTLLAWYQQKPGKAPKLLISKASSLQSGVSARFSGSGSGTEFTLTINSLQPDDFATYSCQQYNSHPVTFGQGTKLEIK
B8: c13155 (antibody, V domains shown)
VH: DVQLLESGGGLVQPGGSLRLSCAGSGYPFSTSDMGWVRQAPGKGLEWVAAIGRSGDGIHYAESVKGRFTISRDNSNNSIYLQMSDLRGDDTGVYYCAKSGWGWCKRGSCSLTVDYWGQGALVTVSS
VL: EIVLTQSPATLSLSPGERATFSCRASQSVGSYLAWYQQKVGQSPRLLIYDSVNRGEGIPGRFSGRGVGTDFTLTIDAVEPEDFAVYYCQQRQIWPLTFGGGTKLEIK

molecular target: HIV-1 NL4-3 Env on infected cells (HIV-1 group M subtype B, NL4-3 (pNL4-3 …, strain))

Binder | binding result
B1 | binds
B2 | binds
B3 | binds
B4 | binds
B5 | binds
B6 | binds
B7 | binds
B8 | binds

Reference: article PMC8196545 (Cell reports, 2021)
